Assay: soluble on expression in E. coli; label from the status in PepcDB or PDB records

Sequence | soluble on expression in E. coli
MAHHHHHHMLKHPQAALLFVHNSSDLFQNDTLGVLRNKTKIQNKKKISRFKIQSSEERHTDGGLHYDLTPENVEKVLNLIRPKLQIDNGDVELVDIKNNDLYIKLLGNCVTCSSNSVTVSQVIKKTLKMYIRNEKNEEPNVIITNFDEINEENIHSCLSDLKPYFDFLSKWHTGGGTPLGVMLGGRGSYSKEKRPFKGGDPSHSISSTPPPLKRAKRSTV | not soluble
STPTSQALYSDFSPPEGLEELLSAPPPDLVAQRHHGWNPKDCSENIDVKEGGLCFERRPVAQSTDGVRGKRGYSRGLHAWEISWPLEQRGTHAVVGVATALAPLQADHYAALLGSNSESWGWDIGRGKLYHQSKGLEAPQYPAGPQGEQLVVPERLLVVLDMEEGTLGYSIGGTYLGPAFRGLKGRTLYPSVSAVWGQCQVRIRYMGERRVEE | soluble
MSQLFVRTGIHFSSSQQALEHIGAEMLARGVVHDSYPAALLEREATFPTGIALEKHAVAIPHCEAIHAKSPAIYLIRPDMPVSFQRADDDGEIDVSLIIALIVENPAAQLKLLRRLFSELQNPHTLEALLAASDDRLPVRFQQLILEPELSAVAS | not soluble
MKLSPSVIALSVLLSSHTLANTAGQVETCQQKAQDIQRQIDEAHKHGNQNRINGLEKALDGVKNHCTDAGLAEKRQEAIAEKRKDVAERQQELSESRQKRDDAEKILKRERKLAEAEQELRAAESGASQLEHHHHHH | soluble
MHDTMHKIFGATPPIFSYTPILTMNLCIAKATPNVCHSTGNLCKAEMDNVTSWVYDKTQGLFITGE | not soluble
MSLEGNLEELVYFYPPSTTPPAVGKYTQLISDLLQSVSIVDALPRGAAQAGILCQDTKEVLESENTVLEIAIPRQDNLVIVGDIHGQFADMLSNVLSIQLNLNNTKATDGRGSPSTEIYKFLFLGDYVDRGPQSLEVITLLFALKVEYPEHIFLLRGNHEEAQTSRLYGFFQECKSKLEGTGDRGPASVDITSSTWLQYNTVFCWLPLAAVVACPSGMFFCTHGGLSPHTLSVPLLRSLRRNEYGMVDDFEDTFYTPTSRGGDDMLEGPGAKARLVIDGLLWSDPEDQVSGCQMNNRGCGFIFGPDVTRSFLDRNYSYGFPPSKRQLIGEMKPGMQFILRGHQCAREGYMWCHGGLVLTLFSAPNYCGMHGNKGAVALLRGQVQAGKDRVELEFNVYDTVVRGGSDNLVACLSPFAFAHYFSGDSEGHHHHHH | soluble
MGSDKIHHHHHHMTKEFTPILLGSDINVYGMARSFNEAYGIRVKALADVQLAATRYSKIVDVELHHGFSADPTFMDVMRKKMEIYKDHKEPVILIACGDGYAELLSKHKDELSKVFIVPYIEYDLLEKLISKEGFYEVAEEYGLPYPKTKIITMDDYKSGKYKDVPFQFPVELKPEDPVSWLNCQFEGRKKTFTLHDENEFEDIVTKIYTHGYTEDLILQDFIPGDDSNMRTLNAYVDKNHQVKMMCLGHPLLEDPTPQSIGNYMTILPAYDEKLYEQVQSFLEKLNYTGMANFDIKYDERDGQYKFFEINLRQGRSSFYVTLNGYNLAKWYIDDYVEDNLSDKKTVYGNKLKSKHVLWMGVPVKIFKEYAFENEAKDTAEELIHEGRYGTTVFYDKDRSLKRWLLMKYMFHNYFARYKKYYEVNKGQYFKKNK | not soluble
MLGKEELRNQSIAVIGAGIIGLSIGLKLQQQGYHVTIFDPNGVGNGCSKGNAGHIATEQVFPLATPALIPQLPKMLLSSTSPVSIRWQDLPNTVGWMIRFLLKAKPSAAEASTQAITSLNTRAVQSWNLLLDSIGKSGLIKMDGSLLTFESESLFEGYQSTLDALAEQGVRYELWTQNEIRRRLPELSRKVRFGVFFPETGHTINPYALCVELSNAFEKLGGSLVHEEVDAVSKNGDVLVNTQRMSFDKIVVAAGVHSKALVRQLTGVNVPIQAERGYHLMMNDKRESLPFPISSADRKFIMTPMSEGLRLAGTVEYADVKSPPNMKRAEMLYQQGNAMFESGLNPLEQQEKWMGNRPSTIDSLPVIDQCFNGKIFLAFGHQHLGLTQAAITADLISELVADKPTSVNITPFTLQRFALEHHHHHH | not soluble
GATNEVNVDAIKQLYMDCKNEADKFDVLTELYGLMTIGSSIIFVATKKTANVLYGKLKSEGHEVSILHGDLQTQERDRLIDDFREGRSKVLITTNVLARGIDIPTVSMVVNYDLPTLANGQADPATYIHRIGRTGRFGRKGVAISFVHDKNSFNILSAIQKYFGDIEMTRVPTDDWDEVEKIVKKVLKD | soluble
MGSDKIHHHHHHYMDTIPTENVSFTTVSTSLDNLYLALNGIHRKMVSQDLGNQGLGGEPGFIIGREALADDLTWDTQTWHQGFLNWSYPTNATSSYNSGEWETYYKFILNANNILKALNDNFSDESKLTDSEKALANHIKGECLAIRAWSHFNLVQYYAKPYRNGQDNSQPGVPYRTSPEIEPMARNTVEEVYTKIHGDLDEALNLLADYEPNDKNHYSLASVYGLKARALLTQQKYADAATAAVNSINEAEKDGCKIMSQSELMNGFANITSATKEAMYAAMTQNDQTVYFYSFYAYMSWNFNSSSIRTGIKCISQSTYDLMSPTDLRRQWWDPTGKAEVPATSYNQRVYQNRKFTARSTADAVGDFAFMRISEMYLTAAEAFARSNQDAKAKEYLQALLKERDPEYKDLGNTGAKLADEIMTHRRIELWGEGFRWFDLKRLGLPLDRTGSNFDATFCGFLHKDPNADGWIFEIPKKETDFNDLIEKNY | not soluble
MSMSSTVIKFRAGVCEYNEDSRLCTPIPVQGEIEIKPNEEEELGFWDFEWRPTEKPVGRELDPISLILIPGETMWVPIKSSKSGRIFALVFSSNERYFFWLQEKNSGNLPLNELSAKDKEIYNKMIGVLNNSSESDEEESNDEKQKAQDVDVSMQD | soluble
MLRISELKLPLGHPPDAMEPAILARLGLSATDLVSFAVARRANDARKKSAIQMVYSVDVVLRDEAAVLRRFEGDHHLRVTPDTGYHFVAKAPEGFDGPRPVVIGAGPCGLFAGLILAQMGLKPIIVDRGKVVRERTKDTWGLWRRSELNPESNVQFGEGGAGTFSDGKLYSQIKDPRFLGRKVLTEFVKAGAPEEILTEAHPHIGTFRLVHMVENMRALIESLGGEYRWQHRVEDFDIEVGEDGVRRVTGLHIAGQGHLPARHVVMALGHSSRDTFQVLYDRGVHIEAKPFSIGVRIEHPQSWIDRARFGDCAGHKDLGAAAYAISHHAKNGRTVYSFCMCPGGTVVAATSEPGRVVTNGMSQYSRNERNANSGFVVDIDPERDYPGHPLAGVDFQRKWESLAFQAGGGTYQAPGQLVGDFLAGRPSTVFGAVTPSYKPGVHLTDLAQCLPDFAIEAMREALPIFGRQIPGYDHPDVVLTGVETRTSSPVRITRGKDFQSLNTAGLYPAGEGAGYAGGILSAAVDGIKVAEAVAKQYVAEGLISACLEHHHHHH | soluble
SLTVFQPLVPPDWKMNLREGSLYAQVAFSAAAGQGFEAGGHGVLKGGSAWMPDNQINGVDFVLPFRFSDGHWQLGIRRPVSLRIGEIVNQVTARNLTADLQGTWPWSEANPLQLSDVSVDLLGGKLTLLQLRMPQRDPALIRLQHISSSELTSAVKVKQFAMSGAVSGALPLWLENNQWIIHDGWLRNDGPMTLRLDKDTADALVADNVSAGAAINWLRYMEISRSWTQINLDNLGVLTLKASINGTSRVEGKSSTVHLNYAHEENIFDLWRSLRFGDNLQAWLEQNATL | not soluble
MYCHAKLKNISQHTVISAHLFLPDYSPMNRDSFYPAIACFPLLLMLAGCAPMHETRQALSQQTPAAQVDTALPTALKMVGQTANGGWSITIINSLPLEHHHHHH | not soluble
MLEDMSKDALFYNYYAQWIEVYKKDAIREATMAKYRMTQKWVEKLAPELKVCELTRTAYQKILNDYAKEHERQTTLDFHHQLKGAVMDAVDEGLIERDPTRKAIIKGKTPREKKIKYLNQFELHTLIADLDIKEEPNWDWFILLVAKTGMRFSEALAITPKDFDFGRQTLSISKTWDYKGKGGFLPTKNKSSVRKIQIDWQIVVKFSELIKGLPEDEPIFVGEEKIYNSTVNDALTRHCKACGISEISIHGLRHTHASLLLFAGVSIASVARRLGHASMTTTQKTYLHIIQELENKDVDLVMRTLSGL | soluble
MLVAAILVGCGRDAPPPAAPVALDKTFLADTAAWREARLKELRAPDGWTSLVGLHWLSLKAHYIGSSADSGIKLAVGPPKMGMVSTENNAVWFVPERGAALTLDGKPLTSRIRFQSDRDPQPTLIHFDDGKGVLSLIHRGDRYALRVKHADASSRTHFAGLDYWPLDASWRINARYVPNAVGKTIPIVDIVGISSEQPNAGAIEFERDGKTFRLETIGEPGRAMFVVFADRTSGHGSYPAGRFLDLDVPDASGHVMVDFNRAYNPPCAFTPFATCPLPPPENRIDLAVSAGEKAYKVPHLEHHHHHH | soluble
MANEIPTKGILKSEALKQYIMETSAYPREHELLKELRKATVQKYGNLSEMEVPVDEGHFLSMLVKIMNAKNTIEIGVFTGYSLLTTALALPEDGRITAIDIDKEAYEVGLEFIKKAGVDHKINFIHSDGLKALDQLVNDKCEFDFAFADADKSSYVNFHERLLKLVKVGGIIAFDNTLWFGFVAEDEDGVPEHMREYRAALIEFNKKLALDPRVEVSQISIGDGITLCRRLV | soluble
MGSDKIHHHHHHMTLELCRLSLQQTQELLRLTDATLKNICSRRFSGEELYSEAIRRVLGGGGKRGPESIFLLIDGIGGTSRGWIFQLQAGELVRSSDEILVDADSVYSLGRLGSEVLVSNWRESFESIERYQVIFHPDIVKHIAKPIRNFVACQISGESNGALLAFNYAGEATEYDGDVLRGLSVVIGSLVTLSVMVRETEHAFIYTIEALARACEAAEESTGDHIVRVNRYAGALAAHMDLSPDFVEVISYSAQMHDVGKIRVPTAILLKPGPLDEAEERVMRLHPEFGEQILGDSPRLSVAREIALSHHENWDGSGYPRGLQGEAIPLAGRIVKLADVYDALRSRRSYKKALSHAEARAVFLNGDERITPRSHFDPRVLETFFRIEPLFERIYQSSRNQQV | not soluble
SHSSSRASFTTRGDIRRQVEGFSASGERNKDTVVDLSTFFAERGYSNNQAPTKYWEEKLVTIGNVVVPKWVPVKERNSSNKQKEGEDEVFIGFEAIYYPEQPPERQPITLYQEENKVEEEEQSRE | soluble
MGSDKIHHHHHHMKHGGFSAASEAENISKSKLSRRIIDLENKFNVSLIQRTTRHFKVTDLGQEFYEECCKVIAQVECAENVLLKQKSEPQGLVKVSCPPLMMHFQIRKILNQFLKTYPKVEISLELTSRRVDILHDDIDLAIRTNFEPNEDSNLIVRDVIKTDHCLVASPELLQGRTIKHYSELQDFPSISLGTQKQNYIWHLCNIRNGESVDVPYQPRIKSNDLAGVYYAVMDGLGIADLPFLTVESEIRKGTLVHILPDWKSNIGMLQLVYVSRKGQRLVVEKLIETLIDELRRLPESHEGYLPT | not soluble
MLLELIPLLGIHFVLRTARAQSVTQPDIHITVSEGASLELRCNYSYGATPYLFWMERTVEEAFILLVCLKPWRVASSLEKKEKEDESFQLLLGSRYNVLEAHCLLPLIRWLTSGDSLLSAQPHCPQEL | not soluble
MKVDVEVLRNFEERLNPAKPENIKIIGYGEISTVFELPELPGIALKRIPNFKSVEQVKRYIEVYFEYIELLEGAGLRVPDSDATFVERRDGKTVLYIAQKMVGNVGNKVIQTAKADEAEEVFGRVLAEMKKVWDFNAERREEGLEIGIDGQISNWAIMEEIYYFDTSTPMIRKNGIHQLDTEVFLQACPPGIRILLKKIFLQDILDRYFDFRKVVVDMIANLYKEGREDLIPIAINLANEFFKLNGYDFEAITAKEVEKYYKEDAFIWSLYLNLRKVHRFILTKALFGRYEYILPGKIRR | not soluble

— the DeepSol protein solubility set
